# Laboratory results from patent US20220162322A1.
# Biological target: BDCA-2 (CLEC4C, CD303) on human plasmacytoid dendritic cells (purified pDC or pDC within PBMC) (human) (UniProt Q8WTT0)
# Test: cell-based or functional assay
# Chain of BDCA-2 (CLEC4C, CD303) on human plasmacytoid dendritic cells (purified pDC or pDC within PBMC) (human) (Q8WTT0 whole entry): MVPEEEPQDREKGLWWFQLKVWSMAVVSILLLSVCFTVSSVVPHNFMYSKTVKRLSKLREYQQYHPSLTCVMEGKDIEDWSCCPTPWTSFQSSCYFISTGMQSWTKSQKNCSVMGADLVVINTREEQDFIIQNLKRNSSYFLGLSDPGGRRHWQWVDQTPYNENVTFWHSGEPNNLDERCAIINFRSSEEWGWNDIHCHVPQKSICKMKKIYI
binder,measurement,value
"anti-BDCA-2 mAb BIIB059 (from patent WO2014093396) (antibody, INN chains, looked up, V domains shown) VH: DVQLVESGGGLVKPGGSLRLSCAASGFTFSTYTMSWVRQAPGKGLEWVATISPGDSFGYYYPDSVQGRFTISRDNAKNSLYLQMNSLRAEDTAVYYCTRDIYYNYGAWFAYWGQGTLVTVSS VL: DIQLTQSPSSLSASVGDRVTITCKASQSVDYDGDSYMNWYQQKPGKAPKLLIYAASTLESGVPSRFSGSGSGTDFTLTISSLQPEDFATYYCQQANEDPRTFGQGTKVEIK","IC50, nM; inhibition of IFNα from ODN stimulated healthy donor PBMC",0.85 nM
same,"IC50, ng/ml; inhibition of IFNα from ODN stimulated healthy donor PBMC",128 ng/mL
same,"IC90, nM; inhibition of IFNα from ODN stimulated healthy donor PBMC",7.68 nM
same,"IC90, ng/ml; inhibition of IFNα from ODN stimulated healthy donor PBMC",1150 ng/mL
